From publication PMC3020078
Values joined by “and” are separate entries in the source; they are usually repeats but may differ in a detail not shown here. Equal values may be shown once.

How the values were obtained:
[1] = biological target: cpMVPvsvg vaults (MVP with an N-terminal cysteine rich peptide and a C-terminal VSVG tag); assay: co-IP
[2] = biological target: cpMVP vaults (MVP with an N-terminal cysteine rich peptide); assay: SAXS

Row | percent of the protein mass as full vaults [2] | Substance | stoichiometry N (HisT7MVP:cpMVPvsvg) [1]
1 | – | HisT7MVP vaults (MVP with N-terminal T7 tag) (from UniProt Q62667 1-861) (natural protein) | 0.8
2 | 46% and 49% | cpMVP vaults (MVP with an N-terminal cysteine rich peptide) (natural protein) | –
